Source: article PMC3378519, “Contribution of DEAF1 Structural Domains to the Interaction with the Breast Cancer Oncogene LMO4” (PLoS ONE, 2012)

B1: GB1-tagged DEAF1_(454–487), isolated coiled coil, recombinant (domain or fragment, mouse, UniProt Q9Z1T5-1 454-487, looked up)
chain: WLYLEEMVNSLLNTAQQLKTLFEQAKQASSCREA
notes: DEAF1, mouse, NM_016874; source: E. coli Rosetta 2, purified (DEAE sepharose, Ni-NTA); not shown: His6, N-terminal, kept; GB1 (Gβ-1 domain of streptococcal protein G), N-terminal, kept
B2: DEAF1_(404–479), recombinant protein for SEC-MALLS (domain or fragment, mouse, UniProt Q9Z1T5-1 404-479, looked up)
chain: IAPFPEAALPTSHPKIVLTSLPALAVPPSTPTKAVSPTVVSGLEMSEHRSWLYLEEMVNSLLNTAQQLKTLFEQAK
notes: DEAF1, mouse, NM_016874; source: recombinant
B3: MBP-fused full length DEAF1, recombinant (natural protein, mouse, UniProt Q9Z1T5-1 1-566, looked up)
chain: MEDSDSAAKQLGLAEAAAVAAAAAVAAAAAAAAESEAEEPVLSRDEDSEEDADSEAERETRRVTAVAVMAAESGHMDMGTEALPSPDEAAAAAAAFAEVTTVTVANVGSSADNVFTTSVANAASISGHVLSGRTALQIGDSLNTEKATLIVVHTDGSIVETTGLKGPAAPLTPGPQSPPTPLAPGQEKGGTKYNWDPSVYDSELPVRCRNISGTLYKSRLGSGGRGRCIKQGENWYSPTEFEAMAGRASSKDWKRSIRYAGRPLQCLIQDGILNPHAASCTCAACCDDMTLSGPVRLFVPYKRRKKENELPTTPVKKDSPKNITLLPATAATTFTVTPSGQITTSGALTFDRASTVEATAVISESPAQGDVFAGATVQEAGVQPPCRVGHPEPHYPGYQDSCQIAPFPEAALPTSHPKIVLTSLPALAVPPSTPTKAVSPTVVSGLEMSEHRSWLYLEEMVNSLLNTAQQLKTLFEQAKQASSCREAAVTQARMQVDTERKEQSCVNCGREAMSECTGCHKVNYCSTFCQRKDWKDHQHVCGQSASVTVQADDVHVEESVIEKVAV
notes: DEAF1, mouse, NM_016874, full length; pMALC2 construct; about 10 subunits by SEC-MALLS, mixture of species; not shown: MBP, N-terminal, kept
B4: MBP-fused DEAF1_(335–485), recombinant (domain or fragment, mouse, UniProt Q9Z1T5-1 335-485, looked up)
chain: TVTPSGQITTSGALTFDRASTVEATAVISESPAQGDVFAGATVQEAGVQPPCRVGHPEPHYPGYQDSCQIAPFPEAALPTSHPKIVLTSLPALAVPPSTPTKAVSPTVVSGLEMSEHRSWLYLEEMVNSLLNTAQQLKTLFEQAKQASSCR
notes: DEAF1, mouse, NM_016874; pMALC2 construct; not shown: MBP, N-terminal, kept

Biological target: the molecule itself
Assay: SEC-MALS; SEC-MALLS; about 200 µg of protein on a Superose 12 column with in-line MALLS detector; weight-averaged molecular weight in solution

Protein	stoichiometry N	binding result
B1	4 subunits	–
B2	–	binds
B3	~10 subunits	–
B4	4 subunits	–
